Assay results taken from PMC10100024 (British Journal of Pharmacology, 2022).

Columns and labels:
Assay in all cases: FRET or BRET
[1] = molecular target: T1, pplss-3HA-hCB1 receptor, wild type (human, UniProt P21554 1-472)
[2] = molecular target: T2, pplss-3HA-hCB1 receptor S425A/S429A (D1) (human, UniProt P21554 1-472, S425A | S429A)
[3] = molecular target: T3, pplss-3HA-hCB1 receptor S462A/T465A (D2) (human, UniProt P21554 1-472, S462A | T465A)
[4] = molecular target: T4, pplss-3HA-hCB1 receptor S464A/T467A (D3) (human, UniProt P21554 1-472, S464A | T467A)
[5] = molecular target: T5, pplss-3HA-hCB1 receptor T465A/S468A (D4) (human, UniProt P21554 1-472, T465A | S468A)
[6] = molecular target: T6, pplss-3HA-hCB1 receptor S462A/S464A/T465A (T) (human, UniProt P21554 1-472, S462A | S464A | T465A)
[7] = molecular target: T1, pplss-3HA-hCB1 receptor, wild type; remark: listed apart in the source
[8] = molecular target: T2, pplss-3HA-hCB1 receptor S425A/S429A (D1); remark: listed apart in the source
[9] = molecular target: T3, pplss-3HA-hCB1 receptor S462A/T465A (D2); remark: listed apart in the source
[10] = molecular target: T4, pplss-3HA-hCB1 receptor S464A/T467A (D3); remark: listed apart in the source
[11] = molecular target: T5, pplss-3HA-hCB1 receptor T465A/S468A (D4); remark: listed apart in the source
[12] = molecular target: T6, pplss-3HA-hCB1 receptor …; remark: listed apart in the source

B1: Nluc-(human)-Arrestin-2-Sp1 (natural protein, UniProt P49407 1-418, looked up)
chain: MGDKGTRVFKKASPNGKLTVYLGKRDFVDHIDLVDPVDGVVLVDPEYLKERRVYVTLTCAFRYGREDLDVLGLTFRKDLFVANVQSFPPAPEDKKPLTRLQERLIKKLGEHAYPFTFEIPPNLPCSVTLQPGPEDTGKACGVDYEVKAFCAENLEEKIHKRNSVRLVIRKVQYAPERPGPQPTAETTRQFLMSDKPLHLEASLDKEIYYHGEPISVNVHVTNNTNKTVKKIKISVRQYADICLFNTAQYKCPVAMEEADDTVAPSSTFCKVYTLTPFLANNREKRGLALDGKLKHEDTNLASSTLLREGANREILGIIVSYKVKVKLVVSRGGLLGDLASSDVAVELPFTLMHPKPKEEPPHREVPENETPVDTNLIELDTNDDDIVFEDFARQRLKGMKDDKEEEEDGTGSPQLNNR
Emax of net translocation (%WT) [1]: 100 %WT
Emax of net translocation (%WT) [2]: 72.3 %WT
Emax of net translocation (%WT) [3]: 32.3 %WT
Emax of net translocation (%WT) [4]: 32.9 %WT
Emax of net translocation (%WT) [5]: 61.6 %WT
Emax of net translocation (%WT) [6]: 25.6 %WT
initial rate of translocation [7]: 0.000136 ΔBRET ratio per second
steady state (ΔBRET ratio) [7]: 0.036 ΔBRET ratio
translocation half time [7]: 185 s
initial rate of translocation [8]: 5.81e-05 ΔBRET ratio per second
steady state (ΔBRET ratio) [8]: 0.036 ΔBRET ratio
translocation half time [8]: 569 s
initial rate of translocation [9]: 3.77e-05 ΔBRET ratio per second
steady state (ΔBRET ratio) [9]: 0.012 ΔBRET ratio
translocation half time [9]: 286 s
initial rate of translocation [10]: 3.06e-05 ΔBRET ratio per second
steady state (ΔBRET ratio) [10]: 0.014 ΔBRET ratio
translocation half time [10]: 354 s
initial rate of translocation [11]: 7.31e-05 ΔBRET ratio per second
steady state (ΔBRET ratio) [11]: 0.022 ΔBRET ratio
translocation half time [11]: 210 s
initial rate of translocation [12]: 3.32e-05 ΔBRET ratio per second
steady state (ΔBRET ratio) [12]: 0.014 ΔBRET ratio
translocation half time [12]: 354 s
